The data set concerns the molecule itself. The data set is described as follows: Western blot of transfected HEK293 cells. How it is done:
After 48 hours, the cells were lysed. The C-terminal truncated version containing a flag tag in the cells was enriched by using flag antibody (F1804. Sigma)-coupled magnetic beads, and then the presence of the N-terminal truncated version interacting with the C-terminal truncated version was detected by western blot using an HA antibody (AE036, ABclonal).
(In western blotting, separated proteins are transferred to a membrane and probed.)

The text below walks through data of patent US20240425876A1 (CHIGENOVO, published 2024).

B1: C-terminal truncated version (aa 1348-2273) of ABCA4 with a Flag tag at its C-terminus (other)
chain: TQLVLQHVQALLVKRFQHTIRSHKDFLAQIVLPATFVFLALMLSIVIPPFGEYPALTLHPWIYGQQYTFFSMDEPGSEQFTVLADVLLNKPGFGNRCLKEGWLPEYPCGNSTPWKTPSVSPNITQLFQKQKWTQVNPSPSCRCSTREKLTMLPECPEGAGGLPPPQRTQRSTEILQDLTDRNISDFLVKTYPALIRSSLKSKFWVNEQRYGGISIGGKLPVVPITGEALVGFLSDLGRIMNVSGGPITREASKEIPDFLKHLETEDNIKVWFNNKGWHALVSFLNVAHNAILRASLPKDRSPEEYGITVISQPLNLTKEQLSEITVLTTSVDAVVAICVIFSMSFVPASFVLYLIQERVNKSKHLQFISGVSPTTYWVTNFLWDIMNYSVSAGLVVGIFIGFQKKAYTSPENLPALVALLLLYGWAVIPMMYPASFLFDVPSTAYVALSCANLFIGINSSAITFILELFENNRTLLRFNAVLRKLLIVFPHFCLGRGLIDLALSQAVTDVYARFGEEHSANPFHWDLIGKNLFAMVVEGVVYFLLTLLVQRHFFLSQWIAEPTKEPIVDEDDDVAEERQRIITGGNKTDILRLHELTKIYPGTSSPAVDRLCVGVRPGECFGLLGVNGAGKTTTFKMLTGDTTVTSGDATVAGKSILTNISEVHQNMGYCPQFDAIDELLTGREHLYLYARLRGVPAEEIEKVANWSIKSLGLTVYADCLAGTYSGGNKRKLSTAIALIGCPPLVLLDEPTTGMDPQARRMLWNVIVSIIREGRAVVLTSHSMEECEALCTRLAIMVKGAFRCMGTIQHLKSKFGDGYIVTMKIKSPKDDLLPDLNPVEQFFQGNFPGSVQRERHYNMLQFQVSSSSLARIFQLLLSHKDSLLIEEYSVTQTTLDQVFVNFAKQQTESHDLPLHPRAAGASRQAQD
notes: Expressed in HEK293 cells; captured on flag antibody-coupled magnetic beads; not shown: Flag tag linked to the C-terminus
On to B1, for which the binding result is “binds”.

B2: N-terminal truncated version (aa 1-1347) of ABCA4 with an HA tag at its C-terminus (other)
chain: MGFVRQIQLLLWKNWTLRKRQKIRFVVELVWPLSLFLVLIWLRNANPLYSHHECHFPNKAMPSAGMLPWLQGIFCNVNNPCFQSPTPGESPGIVSNYNNSILARVYRDFQELLMNAPESQHLGRIWTELHILSQFMDTLRTHPERIAGRGIRIRDILKDEETLTLFLIKNIGLSDSVVYLLINSQVRPEQFAHGVPDLALKDIACSEALLERFIIFSQRRGAKTVRYALCSLSQGTLQWIEDTLYANVDFFKLFRVLPTLLDSRSQGINLRSWGGILSDMSPRIQEFIHRPSMQDLLWVTRPLMQNGGPETFTKLMGILSDLLCGYPEGGGSRVLSFNWYEDNNYKAFLGIDSTRKDPIYSYDRRTTSFCNALIQSLESNPLTKIAWRAAKPLLMGKILYTPDSPAARRILKNANSTFEELEHVRKLVKAWEEVGPQIWYFFDNSTQMNMIRDTLGNPTVKDFLNRQLGEEGITAEAILNFLYKGPRESQADDMANFDWRDIFNITDRTLRLVNQYLECLVLDKFESYNDETQLTQRALSLLEENMFWAGVVFPDMYPWTSSLPPHVKYKIRMDIDVVEKTNKIKDRYWDSGPRADPVEDFRYIWGGFAYLQDMVEQGITRSQVQAEAPVGIYLQQMPYPCFVDDSFMIILNRCFPIFMVLAWIYSVSMTVKSIVLEKELRLKETLKNQGVSNAVIWCTWFLDSFSIMSMSIFLLTIFIMHGRILHYSDPFILFLFLLAFSTATIMLCFLLSTFFSKASLAAACSGVIYFTLYLPHILCFAWQDRMTAELKKAVSLLSPVAFGFGTEYLVRFEEQGLGLQWSNIGNSPTEGDEFSFLLSMQMMLLDAAVYGLLAWYLDQVFPGDYGTPLPWYFLLQESYWLGGEGCSTREERALEKTEPLTEETEDPEHPEGIHDSFFEREHPGWVPGVCVKNLVKIFEPCGRPAVDRLNITFYENQITAFLGHNGAGKTTTLSILTGLLPPTSGTVLVGGRDIETSLDAVRQSLGMCPQHNILFHHLTVAEHMLFYAQLKGKSQEEAQLEMEAMLEDTGLHHKRNEEAQDLSGGMQRKLSVAIAFVGDAKVVILDEPTSGVDPYSRRSIWDLLLKYRSGRTIIMSTHHMDEADLLGDRIAIIAQGRLYCSGTPLFLKNCFGTGLYLTLVRKMKNIQSQRKGSEGTCSCSSKGFSTTCPAHVDDLTPEQVLDGDVNELMDVVLHHVPEAKLVECIGQELIFLLPNKNFKHRAYASLFRELEETLADLGLSSFGISDTPLEEIFLKVTEDSDSGPLFAGGAQQKRENVNPRHPCLGPREKAGQTPQDSNVCSPGAPAAHPEGQPPPEPECPGPQLNTG
notes: Expressed in HEK293 cells from a codon-optimized CDS; tested in cell lysate; also called N1347; not shown: hemagglutinin (HA) tag linked to the C-terminus
Regarding B2, the binding result was “binds”.
